Target: GFP with a c-Myc nuclear localization signal at the C-terminus (GFP-NLS)
Test: label-free LC MS/MS

Question: Which GFP:capsid (GFP-NLS per capsid) does the source give for “AAV-DJ capsid incorporating VP1 with a GFPnb inserted at position H631, supplemented with wild type VP2/VP3 (complex)” here?
Answer: 1 to 3
